Results from patent US20100247590A1, “Peptide-Based Systems For Delivery Of Cosmetic Agents” (JOHNSON & JOHNSON, priority 2009, published 2010).

Biological target: streptavidin (coated on iron oxide particles or on fluorescently-labeled polystyrene particles), P22629
Test: cell-based or functional assay

streptavidin (coated on iron oxide particles or on fluorescently-labeled polystyrene particles), P22629, sequence (P22629 37-163 limits assumed): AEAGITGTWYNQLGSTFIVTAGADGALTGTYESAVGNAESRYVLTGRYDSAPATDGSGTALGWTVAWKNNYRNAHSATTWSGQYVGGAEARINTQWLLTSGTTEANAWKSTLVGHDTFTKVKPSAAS

Color scale (0-5); sequential coloring of hair with streptavidin-coated iron oxide beads (color scale 0-5): 2
B1: peptide HC260 (peptide)
peptide: MASGSDPSAQSQLPDKHSGLHERAPQRYGPEPEPEPEPIPEPPKEAPVVIEKPKPKPKPKPKPPAHDHKNQKETHQRHAAGSGGGGSPMLSENWLTNHPQNGGAGGAGMLSENWLTNHPQNGK
modifications: not checked
